From patent publication US20240317834A1, “COMPOSITIONS AND METHODS FOR NEUROLOGICAL DISEASES” (CODA BIOTHERAPEUTICS, INC., priority 2020, published 2024)

Test system: Lenti-X 293T cells
Assay: YFP fluorescence quenching anion reporter plate reader assay of engineered receptors stimulated with acetylcholine or a non-native ligand
Format: cell-based
Procedure, shortened: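 YFP quench was followed for about 1 min 43 s after ligand delivered in iodide-based ECS, pH 7.2. Values are end-of-read fluorescence (last 10 s) divided by the pre-ligand baseline (15 s). Cells were LX293T, transfected with receptor DNA a day before the assay.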

B1: CODA337: engineered chimeric LGIC receptor, L131N in SEQ ID NO: 33 (protein)
chain: MRCSPGGVWLALAASLLHVSLQGEFQRKLYKELVKNYNPLERPVANDSQPLTVYFSLSLLQIMDVDEKNQVLTTNIWLQMSWTDHYLQWNVSEYPGVKTVRFPDGQIWKPDILLYNSADERFDATFHTNVNVNSSGHCQYLPPGIFKSSCPMDLKNFPMDVQTCKLKFGSWSYGGWSLDLQMQEADISGYIPNGEWDLVGIPGKRSERFYECCKEPYPDVTFTVTMRRRMGYYLIQMYIPSLLIVILSWISFWINMDAAPARVGLGITTVLTMTTQSSGSRASLPKVSYVKAIDIWMAVCLLFVFSALLEYAAVNFVSRQHKELLRFRRKRRHHKSPMLNLFQEDEAGEGRFNFSAYGMGPACLQAKDGISVKGANNSNTTNPPPAPSKSPEEMRKLFIQRAKKIDKISRIGFPMAFLIFNMFYWIIYKIVRREDVHNQ
modifications: synthetic sequence of chimeric LGIC
YFP fluorescence quenching using CNL001 (1 nM CNL001, first column): 76.917%
YFP fluorescence quenching using CNL001 (1 nM CNL001, second column): 79.554%
YFP fluorescence quenching using TC-5619/Bradanicline (3 nM brd): 71.02%
YFP fluorescence quenching using Varenicline (3 nM var, first column): 3.093
YFP fluorescence quenching using Varenicline (3 nM var, second column): 12.327
YFP fluorescence quenching using CNL001 (10 nM CNL001, first column): 79.479%
YFP fluorescence quenching using CNL001 (10 nM CNL001, second column): 79.506%
YFP fluorescence quenching using TC-5619/Bradanicline (30 nM brd): 78.43%
YFP fluorescence quenching using Facinicline (30 nM fac): 82.25
YFP fluorescence quenching using Varenicline (30 nM var, first column): 77.097
YFP fluorescence quenching using Varenicline (30 nM var, second column): 77.653
YFP fluorescence quenching using CNL001 (50 nM CNL001, first column): 81.465%
YFP fluorescence quenching using CNL001 (50 nM CNL001, second column): 81.297%
YFP fluorescence quenching using ABT-126 (50 nM abt): −11.64%
YFP fluorescence quenching using CNL001 (100 nM CNL001, first column): 82.619%
YFP fluorescence quenching using CNL001 (100 nM CNL001, second column): 81.722%
YFP fluorescence quenching using CNL002 (100 nM CNL002): 76.37%
YFP fluorescence quenching using ABT-126 (100 nM abt): 34.79%
YFP fluorescence quenching using AZD-0328 (100 nM azd0328): 82.1%
YFP fluorescence quenching using ABT-126 (300 nM abt): 60.08%
YFP fluorescence quenching using AZD-0328 (300 nM azd0328): 82.52%
YFP fluorescence quenching using TC-5619/Bradanicline (300 nM brd): 77.12%
YFP fluorescence quenching using Facinicline (300 nM fac): 83.59
YFP fluorescence quenching using Varenicline (300 nM var, first column): 79.446
YFP fluorescence quenching using Varenicline (300 nM var, second column): 79.998
YFP fluorescence quenching using Varenicline (500 nM var, first column): 80.691
YFP fluorescence quenching using Varenicline (500 nM var, second column): 80.309
YFP fluorescence quenching using CNL001 (1 uM CNL001, first column): 81.96%
YFP fluorescence quenching using CNL001 (1 uM CNL001, second column): 81.773%
YFP fluorescence quenching using CNL002 (1 uM CNL002): 80.18%
YFP fluorescence quenching using ABT-126 (1 uM abt): 65.99%
YFP fluorescence quenching using TC-6987 (1 uM tc6987): 79.06
YFP fluorescence quenching using Varenicline (1 uM var, first column): 80.258
YFP fluorescence quenching using Varenicline (1 uM var, second column): 79.509
YFP fluorescence quenching using TC-6987 (10 uM tc6987): 82.36
YFP fluorescence quenching using CNL002 (30 uM CNL002): 80.93%
YFP fluorescence quenching using AZD-0328 (30 uM azd0328): 82.32%
YFP fluorescence quenching using Facinicline (30 uM fac): 82.82
YFP fluorescence quenching using TC-6987 (500 uM tc6987): 80.19
percent quench of YFP fluorescence, 30 nM TC-6683 (TC-6683 30 nM): −11.51%
percent quench of YFP fluorescence, 300 nM TC-6683 (TC-6683 300 nM): −13.17%
percent quench of YFP fluorescence, 3 uM TC-6683 (TC-6683 3 uM): −5.46%
percent quench of YFP fluorescence, 30 uM TC-6683 (TC-6683 30 uM): 8.53%
percent quench of YFP fluorescence, 100 uM TC-6683 (TC-6683 100 uM): 14.41%
percent quench of YFP fluorescence, 10 uM ach (acetylcholine 10 uM): 28.32%
percent quench of YFP fluorescence, 100 uM ach (acetylcholine 100 uM): 81.8%
percent quench of YFP fluorescence, 1 mM ach (acetylcholine 1 mM): 71.22%
percent quench of YFP fluorescence, 3 mM ach (acetylcholine 3 mM): 73.7%
